Experimental data as given in patent publication US20140348865A1, “[…] ON AN HIV-1 V1V2 SITE-OF-VULNERABILITY” (The United States of America, as represented by the …, priority 2011, published 2014).

Assays:
monomeric gp120 = test: ELISA or SPR against neutralization
[1] = target: Env of HIV-1 strain 3873 (pseudovirus) (HIV-1)
[2] = target: Env of HIV-1 strain 6405 (pseudovirus) (HIV-1)
[3] = target: Env of HIV-1 strain A03349M1 (pseudovirus) (HIV-1)
[4] = target: Env of HIV-1 strain X2088 (pseudovirus) (HIV-1)
[5] = target: Env of HIV-1 strain QH209 (pseudovirus) (HIV-1)
[6] = target: Env of HIV-1 strain 0439 (pseudovirus) (HIV-1)
[7] = target: Env of HIV-1 strain CNE56 (pseudovirus) (HIV-1)
[8] = target: Env of HIV-1 strain 398 (pseudovirus) (HIV-1)

monoclonal antibody PG9 gave a fold weaker affinity for monomeric gp120 than for the viral spike (monomeric gp120) of over 10 fold, a neutralization IC80 (BR025.9 (HIV-1)) of 0.215 µg/mL and a neutralization IC80 [1] of over 50 µg/mL. It also gave a neutralization IC80 (CNE15 (HIV-1)) of under 0.023 µg/mL, a neutralization IC80 (ZA012.29 (HIV-1)) of over 50 µg/mL and a neutralization IC80 (CH117.4 (HIV-1)) of 0.03 µg/mL. It also gave a neutralization IC80 (3326_V4_C3 (HIV-1)) of 0.111 µg/mL, a neutralization IC80 (NKU3006.ec1 (HIV-1)) of over 50 µg/mL and a neutralization IC80 [2] of over 50 µg/mL. It also gave a neutralization IC80 [3] of over 50 µg/mL, a neutralization IC80 (ZM53.12 (HIV-1)) of 0.17 µg/mL and a neutralization IC80 (57128.vrc15 (HIV-1)) of 0.665 µg/mL. For the same substance, the neutralization IC80 [4] was over 50 µg/mL, the neutralization IC80 (3016.v5.c45 (HIV-1)) was over 50 µg/mL and the neutralization IC80 (SVA.MLV) was over 50 µg/mL. It also gave a neutralization IC80 (3337_V2_C6 (HIV-1)) of over 50 µg/mL, a neutralization IC80 (ZM249.1 (HIV-1)) of 0.408 µg/mL and a neutralization IC80 (ZM55.28a (HIV-1)) of 11.5 µg/mL. For the same substance, the neutralization IC80 (UG021.16 (HIV-1)) was over 50 µg/mL, the neutralization IC80 (SIVmac251.30.SG3 (SIV)) was over 50 µg/mL and the neutralization IC80 (ZM233.6 (HIV-1)) was under 0.023 µg/mL. It also gave a neutralization IC80 (UG024.2 (HIV-1)) of over 50 µg/mL, a neutralization IC80 (3817.v2.c59 (HIV-1)) of 0.028 µg/mL and a neutralization IC80 (231965.c1 (HIV-1)) of over 50 µg/mL. It also gave a neutralization IC50 (M02138) of 0.122 µg/mL, a neutralization IC50 (BB201.B42) of 0.014 µg/mL and a neutralization IC50 (Q769.d22) of 0.007 µg/mL. The neutralization IC50 (6545_V4_C1) was 0.095 µg/mL, the neutralization IC50 (Q461.e2) was 3.01 µg/mL and the neutralization IC50 (KER2018.11) was 0.001 µg/mL. The neutralization IC50 (3718.v3.c11) was 0.05 µg/mL, the neutralization IC50 (CNE55) was 0.146 µg/mL and the neutralization IC50 (C3347.c11) was 0.038 µg/mL. It also gave a neutralization IC50 (3301_V1_C24) of 0.281 µg/mL, a neutralization IC50 (Q769.h5) of 0.002 µg/mL and a neutralization IC50 (620345.c1) of 0.393 µg/mL. It also gave a neutralization IC50 (0330.v4.c3) of 0.018 µg/mL, a neutralization IC50 (0815_V3_C3) of over 50 µg/mL and a neutralization IC50 (6095_V1_C10) of 0.242 µg/mL. It also gave a neutralization IC50 (Q842.d12) of 0.005 µg/mL, a neutralization IC50 [5] of over 50 µg/mL and a neutralization IC50 (3415.v1.c1) of 0.149 µg/mL. The neutralization IC50 (MS208.A1) was 0.071 µg/mL, the neutralization IC50 (RW020.2) was 0.103 µg/mL and the neutralization IC50 [6] was over 50 µg/mL. For the same substance, the neutralization IC50 (CNE59) was 0.091 µg/mL, the neutralization IC50 (TH966.8) was 0.042 µg/mL and the neutralization IC50 (TH976.17) was over 50 µg/mL. It also gave a neutralization IC50 (UG037.8) of 0.021 µg/mL, a neutralization IC50 (MB201.A1) of 0.024 µg/mL and a neutralization IC50 (R1166.c1) of 1.55 µg/mL. It also gave a neutralization IC50 (CNE3) of 0.079 µg/mL, a neutralization IC50 (BS208.B1) of 0.031 µg/mL and a neutralization IC50 (0260.v5.c36) of 2.18 µg/mL. It also gave a neutralization IC50 (BB539.2B13) of 0.106 µg/mL, a neutralization IC50 (KNH1209.18) of 0.367 µg/mL and a neutralization IC50 (C4118.09) of 0.037 µg/mL. The neutralization IC50 (Q259.17) was 0.045 µg/mL, the neutralization IC50 (C1080.c3) was 0.004 µg/mL and the neutralization IC50 (R2184.c4) was 0.2 µg/mL. For the same substance, the neutralization IC50 (MB539.2B7) was 0.058 µg/mL, the neutralization IC50 [7] was over 50 µg/mL and the neutralization IC50 (6540.v4.c1) was 0.035 µg/mL. For the same substance, the neutralization IC50 (Q168.a2) was 0.106 µg/mL, the neutralization IC50 (KER2008.12) was 0.017 µg/mL and the neutralization IC50 [8] was over 50 µg/mL. It also gave a neutralization IC50 (3468_V1_C12) of 2.09 µg/mL and a neutralization IC50 (MI369.A5) of 0.058 µg/mL.
monoclonal antibody PG16 was tested, and the fold weaker affinity for monomeric gp120 than for the viral spike (monomeric gp120) was over 100 fold, the neutralization IC80 (BR025.9 (HIV-1)) was 0.049 µg/mL and the neutralization IC80 [1] was over 50 µg/mL. The neutralization IC80 (CNE15 (HIV-1)) was under 0.023 µg/mL, the neutralization IC80 (ZA012.29 (HIV-1)) was over 50 µg/mL and the neutralization IC80 (CH117.4 (HIV-1)) was 0.028 µg/mL. The neutralization IC80 (3326_V4_C3 (HIV-1)) was 0.221 µg/mL, the neutralization IC80 (NKU3006.ec1 (HIV-1)) was over 50 µg/mL and the neutralization IC80 [2] was over 50 µg/mL. For the same substance, the neutralization IC80 [3] was over 50 µg/mL, the neutralization IC80 (ZM53.12 (HIV-1)) was 0.103 µg/mL and the neutralization IC80 (57128.vrc15 (HIV-1)) was over 50 µg/mL. The neutralization IC80 [4] was over 50 µg/mL, the neutralization IC80 (3016.v5.c45 (HIV-1)) was over 50 µg/mL and the neutralization IC80 (SVA.MLV) was over 50 µg/mL. It also gave a neutralization IC80 (3337_V2_C6 (HIV-1)) of over 50 µg/mL, a neutralization IC80 (ZM249.1 (HIV-1)) of 9.23 µg/mL and a neutralization IC80 (ZM55.28a (HIV-1)) of over 50 µg/mL. The neutralization IC80 (UG021.16 (HIV-1)) was over 50 µg/mL, the neutralization IC80 (SIVmac251.30.SG3 (SIV)) was over 50 µg/mL and the neutralization IC80 (ZM233.6 (HIV-1)) was under 0.023 µg/mL. The neutralization IC80 (UG024.2 (HIV-1)) was over 50 µg/mL, the neutralization IC80 (3817.v2.c59 (HIV-1)) was 0.051 µg/mL and the neutralization IC80 (231965.c1 (HIV-1)) was over 50 µg/mL. It also gave a neutralization IC50 (M02138) of 0.022 µg/mL, a neutralization IC50 (BB201.B42) of 0.003 µg/mL and a neutralization IC50 (Q769.d22) of 0.01 µg/mL. It also gave a neutralization IC50 (6545_V4_C1) of 0.068 µg/mL, a neutralization IC50 (Q461.e2) of 4.11 µg/mL and a neutralization IC50 (KER2018.11) of under 0.0006 µg/mL. For the same substance, the neutralization IC50 (3718.v3.c11) was 0.019 µg/mL, the neutralization IC50 (CNE55) was 1.37 µg/mL and the neutralization IC50 (C3347.c11) was 0.006 µg/mL. For the same substance, the neutralization IC50 (3301_V1_C24) was under 0.023 µg/mL, the neutralization IC50 (Q769.h5) was 0.002 µg/mL and the neutralization IC50 (620345.c1) was over 50 µg/mL. The neutralization IC50 (0330.v4.c3) was 0.006 µg/mL, the neutralization IC50 (0815_V3_C3) was over 50 µg/mL and the neutralization IC50 (6095_V1_C10) was under 0.023 µg/mL. For the same substance, the neutralization IC50 (Q842.d12) was 0.001 µg/mL, the neutralization IC50 [5] was over 50 µg/mL and the neutralization IC50 (3415.v1.c1) was 0.036 µg/mL. It also gave a neutralization IC50 (MS208.A1) of 0.047 µg/mL, a neutralization IC50 (RW020.2) of 0.07 µg/mL and a neutralization IC50 [6] of over 50 µg/mL. For the same substance, the neutralization IC50 (CNE59) was 0.113 µg/mL, the neutralization IC50 (TH966.8) was 0.008 µg/mL and the neutralization IC50 (TH976.17) was over 50 µg/mL. It also gave a neutralization IC50 (UG037.8) of 0.001 µg/mL, a neutralization IC50 (MB201.A1) of 0.001 µg/mL and a neutralization IC50 (R1166.c1) of 0.587 µg/mL. It also gave a neutralization IC50 (CNE3) of 0.173 µg/mL, a neutralization IC50 (BS208.B1) of 0.004 µg/mL and a neutralization IC50 (0260.v5.c36) of 2.1 µg/mL. For the same substance, the neutralization IC50 (BB539.2B13) was 0.012 µg/mL, the neutralization IC50 (KNH1209.18) was 0.678 µg/mL and the neutralization IC50 (C4118.09) was 0.021 µg/mL. For the same substance, the neutralization IC50 (Q259.17) was 0.028 µg/mL, the neutralization IC50 (C1080.c3) was 0.001 µg/mL and the neutralization IC50 (R2184.c4) was 0.28 µg/mL. It also gave a neutralization IC50 (MB539.2B7) of 0.025 µg/mL, a neutralization IC50 [7] of over 50 µg/mL and a neutralization IC50 (6540.v4.c1) of 0.017 µg/mL. It also gave a neutralization IC50 (Q168.a2) of 0.031 µg/mL, a neutralization IC50 (KER2008.12) of 0.006 µg/mL and a neutralization IC50 [8] of over 50 µg/mL. The neutralization IC50 (3468_V1_C12) was 2.38 µg/mL and the neutralization IC50 (MI369.A5) was 0.011 µg/mL.
